Positions of bridges follow the written chain, without caps; N, C: chain ends. Non-standard residues stand in square brackets, D forms with d. Gly(1-adamantyl) = N[C@H](C(=O)O)C12CC3CC(CC(C3)C1)C2; Phe(4-CF3) = N[C@@H](Cc1ccc(C(F)(F)F)cc1)C(=O)O; Phe(4-tBu) = CC(C)(C)c1ccc(C[C@H](N)C(=O)O)cc1; Bip = N[C@@H](Cc1ccc(-c2ccccc2)cc1)C(=O)O; Igl = N[C@H](C(=O)O)C1Cc2ccccc2C1; R8 = C=CCCCCCC[C@@](C)(N)C(=O)O; Cha = N[C@@H](CC1CCCCC1)C(=O)O; hAdm = homo-adamantyl glycine; S5 = C=CCCC[C@](C)(N)C(=O)O

Ki data for 10 molecules are collected here from patent publication US20180273587A1 (AILERON THERAPEUTICS, published 2018).

Common to all, as to experiment: Ki table, method not stated
One experiment addresses T1, MCL-1 (UniProt Q07820 172-327, limits assumed).
T1 construct: also called Myeloid cell leukemia 1

The target in the next experiment is BCL-2 (UniProt P10415 1-217, limits assumed).
For a further experiment, the target named is BCL-XL (UniProt Q07817 1-209).
Sequence of BCL-XL (Q07817 1-209): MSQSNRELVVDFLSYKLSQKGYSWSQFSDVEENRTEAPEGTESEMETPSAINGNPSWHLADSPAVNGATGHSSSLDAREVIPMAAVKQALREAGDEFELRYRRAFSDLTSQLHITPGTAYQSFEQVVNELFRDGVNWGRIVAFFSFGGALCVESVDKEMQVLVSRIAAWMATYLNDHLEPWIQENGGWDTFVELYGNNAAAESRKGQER

T1 sequence (Q07820 172-327 limits assumed): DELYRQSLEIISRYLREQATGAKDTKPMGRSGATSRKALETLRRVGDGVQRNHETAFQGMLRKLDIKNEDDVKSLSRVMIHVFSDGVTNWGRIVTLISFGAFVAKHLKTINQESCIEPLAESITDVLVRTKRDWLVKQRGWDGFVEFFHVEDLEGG
Sequence of BCL-2 (P10415 1-217 limits assumed): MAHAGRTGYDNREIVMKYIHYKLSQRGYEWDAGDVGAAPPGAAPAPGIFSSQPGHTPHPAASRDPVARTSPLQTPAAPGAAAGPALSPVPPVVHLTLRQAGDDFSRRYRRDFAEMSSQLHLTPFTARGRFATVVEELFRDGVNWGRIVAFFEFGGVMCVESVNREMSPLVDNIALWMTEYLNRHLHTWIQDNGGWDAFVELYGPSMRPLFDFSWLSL

B1: SEQ ID NO: 1633 (peptide)
peptide: IWIAQALRAIGDAFNAYYA
modifications: not fully specified; Ac- at N-terminus; -NH2 at C-terminus; $r8 at 9 and $ at 16 joined by all-carbon crosslinker
A word on the Ki: it is the equilibrium dissociation constant of an inhibitor or competing ligand from its target. Low values mean tighter binding, high ones weaker binding. Consider B1, for which the Ki with MCL-1 is 8.4 nM; with BCL-2 it was 84.8 nM; in the experiment with BCL-XL it was 22.4 nM.

B2: SEQ ID NO: 1687 (peptide)
peptide: Ac-IWIAQA[Cha]R[R8]IGDAFN[S5]YYA-NH2
modifications: staple 9-16
SMILES: CC[C@H](C)[C@H](NC(C)=O)C(=O)N[C@@H](Cc1c[nH]c2ccccc12)C(=O)N[C@H](C(=O)N[C@@H](C)C(=O)N[C@@H](CCC(N)=O)C(=O)N[C@@H](C)C(=O)N[C@@H](CC1CCCCC1)C(=O)N[C@@H](CCCNC(=N)N)C(=O)N[C@]1(C)CCCCCCC=CCCC[C@@](C)(C(=O)N[C@@H](Cc2ccc(O)cc2)C(=O)N[C@@H](Cc2ccc(O)cc2)C(=O)N[C@@H](C)C(N)=O)NC(=O)[C@H](CC(N)=O)NC(=O)[C@H](Cc2ccccc2)NC(=O)[C@H](C)NC(=O)[C@H](CC(=O)O)NC(=O)CNC(=O)[C@H]([C@@H](C)CC)NC1=O)[C@@H](C)CC
notes: also called Ac-IWIAQAChaR$r8IGDAFN$YYA-NH2
As to B2, the Ki in the experiment with MCL-1 was 4.2 nM; in the experiment with BCL-XL, 81.1 nM.

B3: SEQ ID NO: 1694 (peptide)
peptide: Ac-IWIAQA[Phe(4-CF3)]R[R8]IGDAFN[S5]YYA-NH2
modifications: staple 9-16
SMILES: CC[C@H](C)[C@H](NC(C)=O)C(=O)N[C@@H](Cc1c[nH]c2ccccc12)C(=O)N[C@H](C(=O)N[C@@H](C)C(=O)N[C@@H](CCC(N)=O)C(=O)N[C@@H](C)C(=O)N[C@@H](Cc1ccc(C(F)(F)F)cc1)C(=O)N[C@@H](CCCNC(=N)N)C(=O)N[C@]1(C)CCCCCCC=CCCC[C@@](C)(C(=O)N[C@@H](Cc2ccc(O)cc2)C(=O)N[C@@H](Cc2ccc(O)cc2)C(=O)N[C@@H](C)C(N)=O)NC(=O)[C@H](CC(N)=O)NC(=O)[C@H](Cc2ccccc2)NC(=O)[C@H](C)NC(=O)[C@H](CC(=O)O)NC(=O)CNC(=O)[C@H]([C@@H](C)CC)NC1=O)[C@@H](C)CC
notes: also called Ac-IWIAQAF4CF3R$r8IGDAFN$YYA-NH2
Turning to B3, the Ki with MCL-1 worked out at 188 nM; with BCL-XL it was 10.8 nM.

B4: SEQ ID NO: 1691 (peptide)
peptide: Ac-IWIAQA[hAdm]R[R8]IGDAFN[S5]YYA-NH2
modifications: staple 9-16
notes: also called Ac-IWIAQAhAdmR$r8IGDAFN$YYA-NH2
As for B4, the Ki is 16.6 nM with MCL-1 and 240 nM in the experiment with BCL-2.

B5: SEQ ID NO: 1684 (peptide)
peptide: Ac-IW[Phe(4-tBu)]AQALR[R8]IGDAFN[S5]YYA-NH2
modifications: staple 9-16
SMILES: CC[C@H](C)[C@H](NC(C)=O)C(=O)N[C@@H](Cc1c[nH]c2ccccc12)C(=O)N[C@@H](Cc1ccc(C(C)(C)C)cc1)C(=O)N[C@@H](C)C(=O)N[C@@H](CCC(N)=O)C(=O)N[C@@H](C)C(=O)N[C@@H](CC(C)C)C(=O)N[C@@H](CCCNC(=N)N)C(=O)N[C@]1(C)CCCCCCC=CCCC[C@@](C)(C(=O)N[C@@H](Cc2ccc(O)cc2)C(=O)N[C@@H](Cc2ccc(O)cc2)C(=O)N[C@@H](C)C(N)=O)NC(=O)[C@H](CC(N)=O)NC(=O)[C@H](Cc2ccccc2)NC(=O)[C@H](C)NC(=O)[C@H](CC(=O)O)NC(=O)CNC(=O)[C@H]([C@@H](C)CC)NC1=O
notes: also called Ac-IWF4tBuAQALR$r8IGDAFN$YYA-NH2
As for B5, the Ki with MCL-1 was 151 nM; in the experiment with BCL-XL, 16.9 nM.

B6: SEQ ID NO: 1641 (peptide)
peptide: Ac-I[S5]IAQ[S5]LR[R8]IGDEFN[S5]YYA-NH2
modifications: staple 9-16, 2-6
SMILES: CC[C@H](C)[C@H](NC(C)=O)C(=O)N[C@@]1(C)CCCC=CCCC[C@@](C)(C(=O)N[C@@H](CC(C)C)C(=O)N[C@@H](CCCNC(=N)N)C(=O)N[C@]2(C)CCCCCCC=CCCC[C@@](C)(C(=O)N[C@@H](Cc3ccc(O)cc3)C(=O)N[C@@H](Cc3ccc(O)cc3)C(=O)N[C@@H](C)C(N)=O)NC(=O)[C@H](CC(N)=O)NC(=O)[C@H](Cc3ccccc3)NC(=O)[C@H](CCC(=O)O)NC(=O)[C@H](CC(=O)O)NC(=O)CNC(=O)[C@H]([C@@H](C)CC)NC2=O)NC(=O)[C@H](CCC(N)=O)NC(=O)[C@H](C)NC(=O)[C@H]([C@@H](C)CC)NC1=O
notes: also called Ac-I$IAQ$LR$r8IGDEFN$YYA-NH2
In the case of B6, the Ki with MCL-1 is 19.5 nM; with BCL-2, 8.7 nM; with BCL-XL it was 11.6 nM.

B7: SEQ ID NO: 1693 (peptide)
peptide: Ac-IWIAQA[Igl]R[R8]IGDAFN[S5]YYA-NH2
modifications: staple 9-16
SMILES: CC[C@H](C)[C@H](NC(C)=O)C(=O)N[C@@H](Cc1c[nH]c2ccccc12)C(=O)N[C@H](C(=O)N[C@@H](C)C(=O)N[C@@H](CCC(N)=O)C(=O)N[C@@H](C)C(=O)N[C@H](C(=O)N[C@@H](CCCNC(=N)N)C(=O)N[C@]1(C)CCCCCCC=CCCC[C@@](C)(C(=O)N[C@@H](Cc2ccc(O)cc2)C(=O)N[C@@H](Cc2ccc(O)cc2)C(=O)N[C@@H](C)C(N)=O)NC(=O)[C@H](CC(N)=O)NC(=O)[C@H](Cc2ccccc2)NC(=O)[C@H](C)NC(=O)[C@H](CC(=O)O)NC(=O)CNC(=O)[C@H]([C@@H](C)CC)NC1=O)C1Cc2ccccc2C1)[C@@H](C)CC
notes: also called Ac-IWIAQAIglR$r8IGDAFN$YYA-NH2
As for B7, the Ki with MCL-1 was 47.7 nM; with BCL-XL, 147 nM.

B8: SEQ ID NO: 1689 (peptide)
peptide: Ac-IWIAQA[Gly(1-adamantyl)]R[R8]IGDAFN[S5]YYA-NH2
modifications: staple 9-16
SMILES: CC[C@H](C)[C@H](NC(C)=O)C(=O)N[C@@H](Cc1c[nH]c2ccccc12)C(=O)N[C@H](C(=O)N[C@@H](C)C(=O)N[C@@H](CCC(N)=O)C(=O)N[C@@H](C)C(=O)N[C@H](C(=O)N[C@@H](CCCNC(=N)N)C(=O)N[C@]1(C)CCCCCCC=CCCC[C@@](C)(C(=O)N[C@@H](Cc2ccc(O)cc2)C(=O)N[C@@H](Cc2ccc(O)cc2)C(=O)N[C@@H](C)C(N)=O)NC(=O)[C@H](CC(N)=O)NC(=O)[C@H](Cc2ccccc2)NC(=O)[C@H](C)NC(=O)[C@H](CC(=O)O)NC(=O)CNC(=O)[C@H]([C@@H](C)CC)NC1=O)C12CC3CC(CC(C3)C1)C2)[C@@H](C)CC
notes: also called Ac-IWIAQAAdmR$r8IGDAFN$YYA-NH2
For the molecule B8, the Ki with MCL-1 is 40.2 nM; with BCL-XL, 110 nM.

B9: SEQ ID NO: 1686 (peptide)
peptide: Ac-IW[Bip]AQALR[R8]IGDAFN[S5]YYA-NH2
modifications: staple 9-16
SMILES: CC[C@H](C)[C@H](NC(C)=O)C(=O)N[C@@H](Cc1c[nH]c2ccccc12)C(=O)N[C@@H](Cc1ccc(-c2ccccc2)cc1)C(=O)N[C@@H](C)C(=O)N[C@@H](CCC(N)=O)C(=O)N[C@@H](C)C(=O)N[C@@H](CC(C)C)C(=O)N[C@@H](CCCNC(=N)N)C(=O)N[C@]1(C)CCCCCCC=CCCC[C@@](C)(C(=O)N[C@@H](Cc2ccc(O)cc2)C(=O)N[C@@H](Cc2ccc(O)cc2)C(=O)N[C@@H](C)C(N)=O)NC(=O)[C@H](CC(N)=O)NC(=O)[C@H](Cc2ccccc2)NC(=O)[C@H](C)NC(=O)[C@H](CC(=O)O)NC(=O)CNC(=O)[C@H]([C@@H](C)CC)NC1=O
notes: also called Ac-IWBipAQALR$r8IGDAFN$YYA-NH2
For B9, the Ki with MCL-1 was found to be 11 nM; with BCL-XL it was 3 nM.

B10: SEQ ID NO: 1628 (peptide)
peptide: IWIAQALRAIGDEFNAYYARR
modifications: not fully specified; Ac- at N-terminus; -NH2 at C-terminus; $r8 at 9 and $ at 16 joined by all-carbon crosslinker
B10: the Ki with MCL-1 was 10.6 nM; with BCL-2, 12.9 nM; with BCL-XL, 3.9 nM.
